Results published in article PMC7205462 (eLife, 2020).
Where no end group is shown, it is not given here. fluorescein = fluorescein (from 5-iodoacetamide fluorescein) label on the Cys side chain

Columns and labels:
TmrAB = target: T1, TmrAB (Thermus thermophilus, UniProt Q72J04+Q72J05, Q72J05:E523Q); assay: biochemical
T1 construct: gene TT_C0976

[1] = target: TmrA^E523QB (Thermus thermophilus)
[2] = target: TmrA^E523QB (Thermus thermophilus); details: scale: translocated peptides per TmrA^EQB complex
[3] = target: TmrA^E523QB (Thermus thermophilus); remark: listed apart in the source
[4] = target: Thermus thermophilus multidrug resistance transport complex TmrAB, wildtype (Thermus thermophilus)
[5] = target: Thermus thermophilus multidrug resistance transport complex TmrAB, wildtype (Thermus thermophilus); assay: radioligand binding; scintillation proximity assay (SPA), equilibrium; His-tagged TmrAB (0.2 µM) in lipid nanodiscs held on copper-chelated SPA beads; R9LQK traced with 3H-R9L; no nucleotide (IF conformation); 20 °C; background with 200 mM imidazole; one-site binding model
[6] = target: TmrA^E523QB (Thermus thermophilus); assay: radioligand binding; SPA time course at 20 °C; TmrA^EQB (0.2 µM) first converted to the OF state with Mg2+-ATP (5 min, 45 °C), excess ATP removed by rapid gel filtration, then R9LQK (10 µM, traced with 3H-R9L); mono-exponential fit; apparent

Q: `Nc1ncnc2c1ncn2[C@@H]1O[C@H](COP(=O)(O)OP(=O)(O)OP(=O)(O)O)[C@@H](O)[C@H]1O` [ATP] was tested. Which EC50 (TmrAB) did it give?
A: The EC50 was 30 µM.

Q: RRYC(fluorescein)KSTEL (also: fluorescein attached via 5-iodoacetamide fluorescein) [C4F peptide (RRYC^fluoresceinKSTEL)] was tested. Which C4F peptides translocated per correctly oriented TmrA^EQB upon each IF-to-OF transition; single-liposome flow cytometry (30 µM C4F, 3 mM Mg2+-ATP, two consecutive switches) (peptides per correctly oriented TmrA^EQB) [1] did it give?
A: Its C4F peptides translocated per correctly oriented TmrA^EQB upon each IF-to-OF transition; single-liposome flow cytometry (30 µM C4F, 3 mM Mg2+-ATP, two consecutive switches) (peptides per correctly oriented TmrA^EQB) is 1.3.

Q: What about the translocated C4F peptides per TmrA^EQB complex; single-turnover transport into proteoliposomes (50 µM C4F, 3 mM Mg2+-ATP, 5 min at 45 °C), fluorescence read-out [2] of the same molecule?
A: Its translocated C4F peptides per TmrA^EQB complex; single-turnover transport into proteoliposomes (50 µM C4F, 3 mM Mg2+-ATP, 5 min at 45 °C), fluorescence read-out is 0.5.

Q: And the C4F peptides transported per liposome in the burst phase (0–5 min at 45 °C) of a time course; single-liposome flow cytometry (30 µM C4F, 3 mM Mg2+-ATP) (peptides per liposome) [3]?
A: The C4F peptides transported per liposome in the burst phase (0–5 min at 45 °C) of a time course; single-liposome flow cytometry (30 µM C4F, 3 mM Mg2+-ATP) (peptides per liposome) was 30.

Q: And the transported C4F peptides with ATP against the background control with ADP; single-liposome flow cytometry (30 µM C4F, 3 mM Mg2+-ATP or Mg2+-ADP, 5 min at 45 °C) [4]?
A: Its transported C4F peptides with ATP against the background control with ADP; single-liposome flow cytometry (30 µM C4F, 3 mM Mg2+-ATP or Mg2+-ADP, 5 min at 45 °C) is 100 fold.

Q: How did the Kd [5] turn out when RRYQKSTEL [R9LQK peptide (…)] was run?
A: The Kd was 70 µM.

Q: And the apparent association rate kon (recovery of peptide binding along the OF-to-IF return) [6]?
A: The apparent association rate kon (recovery of peptide binding along the OF-to-IF return) was 0.03 min⁻¹.

Q: And the half-life of the recovery of peptide binding [6]?
A: Its half-life of the recovery of peptide binding is 24 min.
